Numbered stars: 1 amine (or outer) side, 2 acyl side, 3 side chain; on linkers, the order of the positions; unused ones are H or OH. Bridge positions count the residues as written; N and C are the ends. * marks the point of attachment. C20 diacid = O=C(O)CCCCCCCCCCCCCCCCCCC(=O)*; γGlu = O=C(O)[C@H](CCC(=O)[*:2])N[*:1]
T1: human calcitonin receptor (human, UniProt P30988 25-474)
T1 construct: whole, on cells; also called hCTR; hCT
T1 sequence (looked up): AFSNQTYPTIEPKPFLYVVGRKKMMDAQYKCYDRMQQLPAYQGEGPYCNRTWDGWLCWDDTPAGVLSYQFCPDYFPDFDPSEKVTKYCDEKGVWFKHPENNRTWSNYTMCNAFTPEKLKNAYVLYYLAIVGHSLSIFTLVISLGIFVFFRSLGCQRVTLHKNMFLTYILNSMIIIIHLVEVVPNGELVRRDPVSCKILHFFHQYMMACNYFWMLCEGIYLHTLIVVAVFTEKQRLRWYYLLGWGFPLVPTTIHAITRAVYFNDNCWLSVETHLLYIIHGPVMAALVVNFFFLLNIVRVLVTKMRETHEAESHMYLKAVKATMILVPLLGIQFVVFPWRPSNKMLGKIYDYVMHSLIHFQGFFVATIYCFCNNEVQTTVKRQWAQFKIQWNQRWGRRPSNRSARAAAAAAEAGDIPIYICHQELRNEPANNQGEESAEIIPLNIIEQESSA


Legend:
[1] = target: T1, human calcitonin receptor; experiment: ratio of IC50 at hCTR to IC50 at the human amylin receptor (reference)
Method: The resulting pellet was resuspended, homogenized and centrifuged (20.000 rpm, 15 min) in a buffer containing 20 mM Na-HEPES and 0.1 mM EDTA (pH 7.4, buffer 2). The resulting pellet was resuspended in buffer 2 and protein concentration was measured (BCA protein Assay, Pierce). The homogenate was kept cold during the whole procedure. The membranes were kept at −80° C. until use. The assay was performed in a 384 well Optiplate (PerkinElmer) in a total volume of 40 ul. Membranes were mixed with SPA beads. Final concentration of membranes 35 ng/μL final and SPA beads was 0.05 mg/well. Test-compounds were dissolved in DMSO and further diluted in assay buffer (50 mM Hepes, pH 7.4, 1 mM CaCl2, 5 mM MgCl₂, 0.1% OA and 0.02% Tween20). […] The final mixture was incubated with shaking at 400 rpm for 120 min at 25° C. prior to centrifugation (1500 rpm, 10 min). Samples were analyzed on TopCounter™ (Packard). The IC₅₀ was calculated using (one site binding competition analysis) GraphPad Prism5 as a measure of receptor affinity.
Membranes were prepared in the following way; the cells were rinsed with PBS and incubated with Versene for approximately 5 min before harvesting. The cells were flushed with PBS and the cell-suspension was centrifuged for 5 min at 1000 rpm. Cells were homogenized (Ultrathurrax) in a buffer containing 20 mM Na-HEPES and 10 mM EDTA (pH 7.4) and centrifuged at 20.000 rpm for 15 min. The resulting pellet was resuspended, homogenized and centrifuged (20.000 rpm, 15 min) in a buffer containing 20 mM Na-HEPES and 0.1 mM EDTA (pH 7.4, buffer 2). The resulting pellet was resuspended in buffer 2 and protein concentration was measured (BCA protein Assay, Pierce). The homogenate was kept cold during the whole procedure. The membranes were kept at −80° C. until use. Assay was performed in a 384 well Optiplate (PerkinElmer) in a total volume of 40 ul. Membranes were mixed with SPA beads.

[2] = target: T1, human calcitonin receptor; experiment: SPA competition binding, membranes with human calcitonin receptor, displacement of 125I-calcitonin (Assay VII)
Method: Membranes were prepared in the following way; the cells were rinsed with PBS and incubated with Versene for approximately 5 min before harvesting. The cells were flushed with PBS and the cell-suspension was centrifuged for 5 min at 1000 rpm. Cells were homogenized (Ultrathurrax) in a buffer containing 20 mM Na-HEPES and 10 mM EDTA (pH 7.4) and centrifuged at 20.000 rpm for 15 min. The resulting pellet was resuspended, homogenized and centrifuged (20.000 rpm, 15 min) in a buffer containing 20 mM Na-HEPES and 0.1 mM EDTA (pH 7.4, buffer 2). The resulting pellet was resuspended in buffer 2 and protein concentration was measured (BCA protein Assay, Pierce). The homogenate was kept cold during the whole procedure. The membranes were kept at −80° C. until use. Assay was performed in a 384 well Optiplate (PerkinElmer) in a total volume of 40 ul. Membranes were mixed with SPA beads. Final concentration of membranes 35 ng/μL final and Final concentration of SPA beads was 0.05 mg/well. Test-compounds were dissolved in DMSO and further diluted in assay buffer (50 mM Hepes, pH 7.4, 1 mM CaCl2, 5 mM MgCl₂, 0.1% OA and 0.02% Tween20). […] The final mixture was incubated for 120 min with shaking at 400 rpm at 25° C. prior to centrifugation (1500 rpm, 10 min). Samples were analyzed on TopCounter™ (Packard). The […] was calculated using (one site binding competition analysis) GraphPad Prism5 as a measure of receptor affinity.

| Ratio hCT/hAmylin binding [1] | IC50 [2] [pM] | Binder |
| --- | --- | --- |
| 1.2 | 99 | {C20 diacid-γGlu}-KCNTATCATQRLADFLRHSSPNFGAIPSSTNVGSNTP-NH2 (disulfide 2-7; SMILES CC[C@H](C)[C@H](NC(=O)[C@H](C)NC(=O)CNC(=O)[C@H](Cc1ccccc1)NC(=O)[C@H](CC(N)=O)NC(=O)[C@@H]1CCCN1C(=O)[C@H](CO)NC(=O)[C@H](CO)NC(=O)[C@H](Cc1c[nH]cn1)NC(=O)[C@H](CCCNC(=N)N)NC(=O)[C@H](CC(C)C)NC(=O)[C@H](Cc1ccccc1)NC(=O)[C@H](CC(=O)O)NC(=O)[C@H](C)NC(=O)[C@H](CC(C)C)NC(=O)[C@H](CCCNC(=N)N)NC(=O)[C@H](CCC(N)=O)NC(=O)[C@@H](NC(=O)[C@H](C)NC(=O)[C@@H]1CSSC[C@H](NC(=O)[C@H](CCCCN)NC(=O)CC[C@H](NC(=O)CCCCCCCCCCCCCCCCCCC(=O)O)C(=O)O)C(=O)N[C@@H](CC(N)=O)C(=O)N[C@@H]([C@@H](C)O)C(=O)N[C@@H](C)C(=O)N[C@@H]([C@@H](C)O)C(=O)N1)[C@@H](C)O)C(=O)N1CCC[C@H]1C(=O)N[C@@H](CO)C(=O)N[C@@H](CO)C(=O)N[C@H](C(=O)N[C@@H](CC(N)=O)C(=O)N[C@H](C(=O)NCC(=O)N[C@@H](CO)C(=O)N[C@@H](CC(N)=O)C(=O)N[C@H](C(=O)N1CCC[C@H]1C(N)=O)[C@@H](C)O)C(C)C)[C@@H](C)O, also called compound 10) |
| 2.1 | 688 | {C20 diacid-γGlu}-KCNTATCATQRLAEFLRHSSPNFGPILPPTNVGSNTP-NH2 (disulfide 2-7; SMILES CC[C@H](C)[C@H](NC(=O)[C@@H]1CCCN1C(=O)CNC(=O)[C@H](Cc1ccccc1)NC(=O)[C@H](CC(N)=O)NC(=O)[C@@H]1CCCN1C(=O)[C@H](CO)NC(=O)[C@H](CO)NC(=O)[C@H](Cc1c[nH]cn1)NC(=O)[C@H](CCCNC(=N)N)NC(=O)[C@H](CC(C)C)NC(=O)[C@H](Cc1ccccc1)NC(=O)[C@H](CCC(=O)O)NC(=O)[C@H](C)NC(=O)[C@H](CC(C)C)NC(=O)[C@H](CCCNC(=N)N)NC(=O)[C@H](CCC(N)=O)NC(=O)[C@@H](NC(=O)[C@H](C)NC(=O)[C@@H]1CSSC[C@H](NC(=O)[C@H](CCCCN)NC(=O)CC[C@H](NC(=O)CCCCCCCCCCCCCCCCCCC(=O)O)C(=O)O)C(=O)N[C@@H](CC(N)=O)C(=O)N[C@@H]([C@@H](C)O)C(=O)N[C@@H](C)C(=O)N[C@@H]([C@@H](C)O)C(=O)N1)[C@@H](C)O)C(=O)N[C@@H](CC(C)C)C(=O)N1CCC[C@H]1C(=O)N1CCC[C@H]1C(=O)N[C@H](C(=O)N[C@@H](CC(N)=O)C(=O)N[C@H](C(=O)NCC(=O)N[C@@H](CO)C(=O)N[C@@H](CC(N)=O)C(=O)N[C@H](C(=O)N1CCC[C@H]1C(N)=O)[C@@H](C)O)C(C)C)[C@@H](C)O, also called compound 4) |
| 1.4 | 537 | {C20 diacid-γGlu}-KCNTATCATQRLAEFLRHSSPNFGAPLSSTNVGSNTP-NH2 (disulfide 2-7; SMILES CC(C)C[C@H](NC(=O)[C@H](CCCNC(=N)N)NC(=O)[C@H](CCC(N)=O)NC(=O)[C@@H](NC(=O)[C@H](C)NC(=O)[C@@H]1CSSC[C@H](NC(=O)[C@H](CCCCN)NC(=O)CC[C@H](NC(=O)CCCCCCCCCCCCCCCCCCC(=O)O)C(=O)O)C(=O)N[C@@H](CC(N)=O)C(=O)N[C@@H]([C@@H](C)O)C(=O)N[C@@H](C)C(=O)N[C@@H]([C@@H](C)O)C(=O)N1)[C@@H](C)O)C(=O)N[C@@H](C)C(=O)N[C@@H](CCC(=O)O)C(=O)N[C@@H](Cc1ccccc1)C(=O)N[C@@H](CC(C)C)C(=O)N[C@@H](CCCNC(=N)N)C(=O)N[C@@H](Cc1c[nH]cn1)C(=O)N[C@@H](CO)C(=O)N[C@@H](CO)C(=O)N1CCC[C@H]1C(=O)N[C@@H](CC(N)=O)C(=O)N[C@@H](Cc1ccccc1)C(=O)NCC(=O)N[C@@H](C)C(=O)N1CCC[C@H]1C(=O)N[C@@H](CC(C)C)C(=O)N[C@@H](CO)C(=O)N[C@@H](CO)C(=O)N[C@H](C(=O)N[C@@H](CC(N)=O)C(=O)N[C@H](C(=O)NCC(=O)N[C@@H](CO)C(=O)N[C@@H](CC(N)=O)C(=O)N[C@H](C(=O)N1CCC[C@H]1C(N)=O)[C@@H](C)O)C(C)C)[C@@H](C)O, also called compound 5) |
| 20 | 20000 | {C20 diacid-γGlu}-KCNTATCATQRLAEFLRHSSPNFGPILPPTNVGSNTY-NH2 (disulfide 2-7; SMILES CC[C@H](C)[C@H](NC(=O)[C@@H]1CCCN1C(=O)CNC(=O)[C@H](Cc1ccccc1)NC(=O)[C@H](CC(N)=O)NC(=O)[C@@H]1CCCN1C(=O)[C@H](CO)NC(=O)[C@H](CO)NC(=O)[C@H](Cc1c[nH]cn1)NC(=O)[C@H](CCCNC(=N)N)NC(=O)[C@H](CC(C)C)NC(=O)[C@H](Cc1ccccc1)NC(=O)[C@H](CCC(=O)O)NC(=O)[C@H](C)NC(=O)[C@H](CC(C)C)NC(=O)[C@H](CCCNC(=N)N)NC(=O)[C@H](CCC(N)=O)NC(=O)[C@@H](NC(=O)[C@H](C)NC(=O)[C@@H]1CSSC[C@H](NC(=O)[C@H](CCCCN)NC(=O)CC[C@H](NC(=O)CCCCCCCCCCCCCCCCCCC(=O)O)C(=O)O)C(=O)N[C@@H](CC(N)=O)C(=O)N[C@@H]([C@@H](C)O)C(=O)N[C@@H](C)C(=O)N[C@@H]([C@@H](C)O)C(=O)N1)[C@@H](C)O)C(=O)N[C@@H](CC(C)C)C(=O)N1CCC[C@H]1C(=O)N1CCC[C@H]1C(=O)N[C@H](C(=O)N[C@@H](CC(N)=O)C(=O)N[C@H](C(=O)NCC(=O)N[C@@H](CO)C(=O)N[C@@H](CC(N)=O)C(=O)N[C@H](C(=O)N[C@@H](Cc1ccc(O)cc1)C(N)=O)[C@@H](C)O)C(C)C)[C@@H](C)O, also called compound 6) |
| 16.5 | 11100 | {C20 diacid-γGlu}-KCNTATCATQRLAEFLRHSSPNFGAPLSSTNVGSNTY-NH2 (disulfide 2-7; SMILES CC(C)C[C@H](NC(=O)[C@H](CCCNC(=N)N)NC(=O)[C@H](CCC(N)=O)NC(=O)[C@@H](NC(=O)[C@H](C)NC(=O)[C@@H]1CSSC[C@H](NC(=O)[C@H](CCCCN)NC(=O)CC[C@H](NC(=O)CCCCCCCCCCCCCCCCCCC(=O)O)C(=O)O)C(=O)N[C@@H](CC(N)=O)C(=O)N[C@@H]([C@@H](C)O)C(=O)N[C@@H](C)C(=O)N[C@@H]([C@@H](C)O)C(=O)N1)[C@@H](C)O)C(=O)N[C@@H](C)C(=O)N[C@@H](CCC(=O)O)C(=O)N[C@@H](Cc1ccccc1)C(=O)N[C@@H](CC(C)C)C(=O)N[C@@H](CCCNC(=N)N)C(=O)N[C@@H](Cc1c[nH]cn1)C(=O)N[C@@H](CO)C(=O)N[C@@H](CO)C(=O)N1CCC[C@H]1C(=O)N[C@@H](CC(N)=O)C(=O)N[C@@H](Cc1ccccc1)C(=O)NCC(=O)N[C@@H](C)C(=O)N1CCC[C@H]1C(=O)N[C@@H](CC(C)C)C(=O)N[C@@H](CO)C(=O)N[C@@H](CO)C(=O)N[C@H](C(=O)N[C@@H](CC(N)=O)C(=O)N[C@H](C(=O)NCC(=O)N[C@@H](CO)C(=O)N[C@@H](CC(N)=O)C(=O)N[C@H](C(=O)N[C@@H](Cc1ccc(O)cc1)C(N)=O)[C@@H](C)O)C(C)C)[C@@H](C)O, also called compound 7) [N^α1-[(4S)-4-carboxy-4-(19-carboxynonadecanoylamino)butanoyl]-[Glu14,Arg17,Pro21,Pro26]-h-amylin] |
